Test results as given in patent US20210054094A1 (Hoffmann-La Roche, published 2021).
Positions count from the first letter of the chain named. Blank lines part the entries; values can stand above or below the binder they belong to.

Assays:
human GPRC5D [1] = target: T1, human GPRC5D (human, UniProt Q9NZD1 1-345); assay: cell-based or functional assay
human GPRC5D [2] = target: T1, human GPRC5D; assay: cell-based or functional assay; remark: listed apart in the source

T1 sequence (Q9NZD1 whole entry): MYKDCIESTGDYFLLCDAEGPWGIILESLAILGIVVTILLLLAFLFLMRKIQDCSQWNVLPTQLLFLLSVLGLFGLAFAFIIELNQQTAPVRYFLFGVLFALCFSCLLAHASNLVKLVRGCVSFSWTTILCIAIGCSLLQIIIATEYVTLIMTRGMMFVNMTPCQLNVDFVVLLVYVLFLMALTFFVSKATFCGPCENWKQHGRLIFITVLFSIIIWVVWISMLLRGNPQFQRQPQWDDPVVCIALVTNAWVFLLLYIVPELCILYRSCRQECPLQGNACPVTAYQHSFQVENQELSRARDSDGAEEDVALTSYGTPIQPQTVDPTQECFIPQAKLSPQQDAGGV

B1: P1AE5733 (antibody, V domains shown)
VH: EVQLVESGGGLVQPGRSLKLSCAASGFSFSNYGMAWVRQAATKGLEWVASISTGGGNTYYRDSVKGRFIVSRDNAKNTQYLQMDSLRSEDTATYYCTRHDRGGLYWGQGVMVTVSS
VL: DIVMTQAPLSVSVTPGESASISCRSSKSLLHSNGITYVYWYFQKPGKSPQVLIYRMSNLASGVPDRFSGSGSETDFTLKISRVEAEDVGIYHCGQLLENPYTFGAGTELELK
CAR-J2 EC50 (PGLALA-CAR-J activation, L363 target cells) (human GPRC5D [1]): 0.00265 µg/mL

B2: 10B10-TCB (bispecific antibody)
light 1: DIQLTQSPHSLSASLGETVSIECLASEGISNYLAWFHQKPGKSPQLLIYYASSLQDGVPSRFSGSGSGTQYSLKISNMQPEDEGVYYCQQGYKYPLTFGSGTKLEIKRTVAAPSVFIFPPSDRKLKSGTASVVCLLNNFYPREAKVQWKVDNALQSGNSQESVTEQDSKDSTYSLSSTLTLSKADYEKHKVYACEVTHQGLSSPVTKSFNRGEC
light 2: EVQLLESGGGLVQPGGSLRLSCAASGFTFSTYAMNWVRQAPGKGLEWVSRIRSKYNNYATYYADSVKGRFTISRDDSKNTLYLQMNSLRAEDTAVYYCVRHGNFGNSYVSWFAYWGQGTLVTVSSASVAAPSVFIFPPSDEQLKSGTASVVCLLNNFYPREAKVQWKVDNALQSGNSQESVTEQDSKDSTYSLSSTLTLSKADYEKHKVYACEVTHQGLSSPVTKSFNRGEC
heavy 1: EVQLVESGGGLVQPGRSMKLSCAASGFTFTNFYMAWVRQAPTKALEWVASINTGGGYTYYRDSVKGRFTVSRDNTRSTLYLQMDSLRSEETATYYCARHLTYYGRYYYFDYWGQGVMVTVSSASTKGPSVFPLAPSSKSTSGGTAALGCLVEDYFPEPVTVSWNSGALTSGVHTFPAVLQSSGLYSLSSVVTVPSSSLGTQTYICNVNHKPSNTKVDEKVEPKSCDKTHTCPPCPAPEAAGGPSVFLFPPKPKDTLMISRTPEVTCVVVDVSHEDPEVKFNWYVDGVEVHNAKTKPREEQYNSTYRVVSVLTVLHQDWLNGKEYKCKVSNKALGAPIEKTISKAKGQPREPQVCTLPPSRDELTKNQVSLSCAVKGFYPSDIAVEWESNGQPENNYKTTPPVLDSDGSFFLVSKLTVDKSRWQQGNVFSCSVMHEALHNHYTQKSLSLSPGK
heavy 2: not shown
EC50 of in vitro killing, AMO-1 cells (human GPRC5D [2]): 84 pM | EC50 of in vitro killing, EJM cells (human GPRC5D [2]): 79 pM | EC50 of in vitro killing, L363 cells (human GPRC5D [2]): 34 pM | EC50 of in vitro killing, MOLP-2 cells (human GPRC5D [2]): 160 pM | EC50 of in vitro killing, NCI-H929 cells (human GPRC5D [2]): 56 pM | EC50 of in vitro killing, OPM-2 cells (human GPRC5D [2]): 28 pM | EC50 of in vitro killing, RPMI cells (human GPRC5D [2]): 965 pM

B3: P1AE5739 (antibody, V domains shown)
VH: EVQLVESGGGVVQPGRSLRLSCAASGFSFSNYGMAWVRQAPGKGLEWVASISTGGGNTYYRDSVKGRFTISRDNAKNTLYLQMNSLRAEDTAVYYCTRHDRGGLYWGQGTMVTVSS
VL: DIVMTQSPLSLPVTPGEPASISCRSSKSLLHSNGITYVYWYLQKPGQSPQVLIYRMSNLASGVPDRFSGSGSGTDFTLKISRVEAEDVGVYHCGQLLENPYTFGQGTKLEIK
CAR-J2 EC50 (PGLALA-CAR-J activation, L363 target cells) (human GPRC5D [1]): 0.0235 µg/mL

B4: P1AE5742 (antibody, V domains shown)
VH: B3 VH
VL: DIVMTQSPDSLAVSLGERATINCKSSKSLLHSNGITYVYWYQQKPGQPPKLLIYRMSNLASGVPDRFSGSGSGTDFTLTISSLQAEDVAVYHCGQLLENPYTFGQGTKLEIK
CAR-J2 EC50 (PGLALA-CAR-J activation, L363 target cells) (human GPRC5D [1]): 0.0619 µg/mL

B5: P1AE5743 (antibody, V domains shown)
VH: B3 VH
VL: EIVLTQSPGTLSLSPGERATLSCRASKSLLHSNGITYVYWYQQKPGQAPRLLIYRMSNLASGIPDRFSGSGSGTDFTLTISRLEPEDFAVYHCGQLLENPYTFGQGTKLEIK
CAR-J2 EC50 (PGLALA-CAR-J activation, L363 target cells) (human GPRC5D [1]): 0.583 µg/mL

B7: P1AE5746 (antibody, V domains shown)
VH: B3 VH with E1Q, R61A, A75S
VL: B3 VL with V51L, L59R
CAR-J2 EC50 (PGLALA-CAR-J activation, L363 target cells) (human GPRC5D [1]): 0.514 µg/mL

B12: P1AE5736 (antibody, V domains shown)
VH: B3 VH with E1Q, A75S
VL: B3 VL with V51L, L59R
CAR-J2 EC50 (PGLALA-CAR-J activation, L363 target cells) (human GPRC5D [1]): 0.00138 µg/mL

B15: P1AE5735 (antibody, V domains shown)
VH: B3 VH with E1Q, A75S
VL: B3 VL with Q47K
CAR-J2 EC50 (PGLALA-CAR-J activation, L363 target cells) (human GPRC5D [1]): 0.0821 µg/mL

B16: P1AE5747 (antibody, V domains shown)
VH: B3 VH with E1Q, R61A, A75S
VL: B4 VL
CAR-J2 EC50 (PGLALA-CAR-J activation, L363 target cells) (human GPRC5D [1]): 0.183 µg/mL

B17: P1AE5745 (antibody, V domains shown)
VH: B3 VH with E1Q, R61A, A75S
VL: B3 VL with Q47K
CAR-J2 EC50 (PGLALA-CAR-J activation, L363 target cells) (human GPRC5D [1]): 0.00162 µg/mL

B18: P1AE5744 (antibody, V domains shown)
VH: B3 VH with E1Q, R61A, A75S
VL: B3 VL
CAR-J2 EC50 (PGLALA-CAR-J activation, L363 target cells) (human GPRC5D [1]): 0.00363 µg/mL

B23: P1AE5740 (antibody, V domains shown)
VH: B3 VH
VL: B3 VL with Q47K
CAR-J2 EC50 (PGLALA-CAR-J activation, L363 target cells) (human GPRC5D [1]): 0.00896 µg/mL

B26: P1AE5749 (antibody, V domains shown)
VH: B3 VH with E1Q, R61A, A75S
VL: B5 VL
CAR-J2 EC50 (PGLALA-CAR-J activation, L363 target cells) (human GPRC5D [1]): 0.0826 µg/mL

B27: P1AE5734 (antibody, V domains shown)
VH: B3 VH with E1Q, A75S
VL: B3 VL
CAR-J2 EC50 (PGLALA-CAR-J activation, L363 target cells) (human GPRC5D [1]): 0.0415 µg/mL

B29: P1AE5741 (antibody, V domains shown)
VH: B3 VH
VL: B3 VL with V51L, L59R
CAR-J2 EC50 (PGLALA-CAR-J activation, L363 target cells) (human GPRC5D [1]): 0.0014 µg/mL

B31: P1AE5737 (antibody, V domains shown)
VH: B3 VH with E1Q, A75S
VL: B4 VL
CAR-J2 EC50 (PGLALA-CAR-J activation, L363 target cells) (human GPRC5D [1]): 0.00295 µg/mL

B32: P1AE5738 (antibody, V domains shown)
VH: B3 VH with E1Q, A75S
VL: B5 VL
CAR-J2 EC50 (PGLALA-CAR-J activation, L363 target cells) (human GPRC5D [1]): 0.397 µg/mL

Further lines, results first:

CAR-J2 EC50 (PGLALA-CAR-J activation, L363 target cells) (human GPRC5D [1]): 0.19 µg/mL
B6: P1AE5758 (antibody, V domains shown)
VH: B3 VH with V11L, R16G
VL: B4 VL

CAR-J2 EC50 (PGLALA-CAR-J activation, L363 target cells) (human GPRC5D [1]): 0.17 µg/mL
B8: P1AE5756 (antibody, V domains shown)
VH: B3 VH with V11L, R16G
VL: B3 VL with Q47K

CAR-J2 EC50 (PGLALA-CAR-J activation, L363 target cells) (human GPRC5D [1]): 0.0206 µg/mL
B9: P1AE5750 (antibody, V domains shown)
VH: B3 VH with R61A
VL: B3 VL

CAR-J2 EC50 (PGLALA-CAR-J activation, L363 target cells) (human GPRC5D [1]): 0.00547 µg/mL
B10: P1AE5763 (antibody, V domains shown)
VH: B3 VH with V11L, R16G, R61A
VL: B4 VL

CAR-J2 EC50 (PGLALA-CAR-J activation, L363 target cells) (human GPRC5D [1]): 0.00644 µg/mL
B11: P1AE5751 (antibody, V domains shown)
VH: B3 VH with R61A
VL: B3 VL with Q47K

CAR-J2 EC50 (PGLALA-CAR-J activation, L363 target cells) (human GPRC5D [1]): 0.19 µg/mL
B13: P1AE5760 (antibody, V domains shown)
VH: B3 VH with V11L, R16G, R61A
VL: B3 VL

CAR-J2 EC50 (PGLALA-CAR-J activation, L363 target cells) (human GPRC5D [1]): 0.509 µg/mL
B14: P1AE5752 (antibody, V domains shown)
VH: B3 VH with R61A
VL: B3 VL with V51L, L59R

CAR-J2 EC50 (PGLALA-CAR-J activation, L363 target cells) (human GPRC5D [1]): 0.0746 µg/mL
B19: P1AE5761 (antibody, V domains shown)
VH: B3 VH with V11L, R16G, R61A
VL: B3 VL with Q47K

CAR-J2 EC50 (PGLALA-CAR-J activation, L363 target cells) (human GPRC5D [1]): 0.03 µg/mL
B20: P1AE5753 (antibody, V domains shown)
VH: B3 VH with R61A
VL: B4 VL

CAR-J2 EC50 (PGLALA-CAR-J activation, L363 target cells) (human GPRC5D [1]): 0.00889 µg/mL
B21: P1AE5754 (antibody, V domains shown)
VH: B3 VH with R61A
VL: B5 VL

CAR-J2 EC50 (PGLALA-CAR-J activation, L363 target cells) (human GPRC5D [1]): 0.152 µg/mL
B22: P1AE5755 (antibody, V domains shown)
VH: B3 VH with V11L, R16G
VL: B3 VL

CAR-J2 EC50 (PGLALA-CAR-J activation, L363 target cells) (human GPRC5D [1]): 0.0842 µg/mL
B24: P1AE5762 (antibody, V domains shown)
VH: B3 VH with V11L, R16G, R61A
VL: B3 VL with V51L, L59R

CAR-J2 EC50 (PGLALA-CAR-J activation, L363 target cells) (human GPRC5D [1]): 0.0782 µg/mL
B25: P1AE5764 (antibody, V domains shown)
VH: B3 VH with V11L, R16G, R61A
VL: B5 VL

CAR-J2 EC50 (PGLALA-CAR-J activation, L363 target cells) (human GPRC5D [1]): 0.145 µg/mL
B28: P1AE5757 (antibody, V domains shown)
VH: B3 VH with V11L, R16G
VL: B3 VL with V51L, L59R

CAR-J2 EC50 (PGLALA-CAR-J activation, L363 target cells) (human GPRC5D [1]): 0.0157 µg/mL
B30: P1AE5759 (antibody, V domains shown)
VH: B3 VH with V11L, R16G
VL: B5 VL
